Data as given in patent publication US20250269047A1.

Target: human B7-H3 naturally expressed on the surface of tumor cells (human) (UniProt Q5ZPR3)
Test: FACS on A431 cells

Chain of human B7-H3 naturally expressed on the surface of tumor cells (human) (Q5ZPR3 29-534): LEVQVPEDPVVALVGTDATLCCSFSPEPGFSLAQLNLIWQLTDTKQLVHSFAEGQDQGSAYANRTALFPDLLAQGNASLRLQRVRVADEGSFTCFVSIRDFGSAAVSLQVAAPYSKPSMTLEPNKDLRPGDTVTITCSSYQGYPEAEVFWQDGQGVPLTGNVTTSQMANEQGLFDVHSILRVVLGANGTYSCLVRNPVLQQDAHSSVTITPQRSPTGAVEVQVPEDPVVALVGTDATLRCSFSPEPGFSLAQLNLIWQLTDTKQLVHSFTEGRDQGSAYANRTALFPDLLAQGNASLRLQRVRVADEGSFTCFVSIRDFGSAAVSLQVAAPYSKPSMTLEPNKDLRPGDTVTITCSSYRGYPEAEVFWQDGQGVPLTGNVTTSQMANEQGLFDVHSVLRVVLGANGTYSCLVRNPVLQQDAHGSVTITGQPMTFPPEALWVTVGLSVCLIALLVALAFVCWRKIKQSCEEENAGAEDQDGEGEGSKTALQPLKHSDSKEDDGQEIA

Row | EC50 [µg/mL] | Binder
1 | 0.101 | ch17A3 (antibody, human IgG1, V domains shown) VH: QVQLQQSGPELVRPGVSVKISCKGSGYTFTDYALHWVKQSHAKSPQWIGLINTYSSNTNYNQKFKDKATMTVDKSSSTAYMELARLTSEDSAIYYCARGITAVVGTRYYAMDYWGQGTSVTVSS VL: NIVLTQSPTTLSVTPGDTVSLSCRASQSISNNLHWYQQRSHESPRLIIKYTSQNISGIPSRFSGSGSGTDFTLSINSVETEDFGMYFCQQSYSWPLTFGAGTKLELKR
2 | 0.137 | ch9B11 (antibody, human IgG1, V domains shown) VH: EVQLQQSGPELVRPGVSVKISCKGSGYSFTDYAIHWVKQSHAMSLEWIGIINTYYGNTNYNQKFKGKATMTVDKSSSTAYMELARLTSADSAIYYCARSTTTATFYWYFDVWGAGTTVSVSS VL: DIVLTQSPVTLSVTPGDSVSLSCRASQSINNNLHWYQQKPHESPRLLIKYASQSISGIPSRFSGSGSGTDFTLSFNSVETEDFGMYFCQQSHSWPYTFGGGTKLEIK

Continued, binder first:

Row | Binder | EC50 [µg/mL]
3 | Enoblituzumab (antibody, human IgG1, kappa, V domains shown) VH: EVQLVESGGGLVQPGGSLRLSCAASGFTFSSFGMHWVRQAPGKGLEWVAYISSDSSAIYYADTVKGRFTISRDNAKNSLYLQMNSLRDEDTAVYYCGRGRENIYYGSRLDYWGQGTTVTVSS VL: DIQLTQSPSFLSASVGDRVTITCKASQNVDTNVAWYQQKPGKAPKALIYSASYRYSGVPSRFSGSGSGTDFTLTISSLQPEDFATYYCQQYNNYPFTFGQGTKLEIKR | 0.374
4 | ch10B4 (antibody, human IgG1, V domains shown) VH: EVQLQQSGPELVKPGASVKISCKTSGYTFTEYIMHWVKQSHGKSLEWIGGINPNNGGTTYNQKFKGKATLTVDKSSSTAYMELRSLTSEDSAVYYCARKGKDYFDWYFDVWGAGTTVTVSS VL: QIVLTQSPTIMSASPGEKVTMTCSASSSVSYMHWYQQKSGTSPKRWIYDTSKLASGVPARFSGSGSGTSYSLTISSMEAEDAATYYCQQWSSNPLTFGAGTKLELK | 0.203

Target: human B7-H3 naturally expressed on the surface of tumor cells (human) (UniProt Q5ZPR3)
Test: FACS on SKVO3 cells

Row | EC50 [µg/mL] | Binder
5 | 0.0441 | hz17A3-14 (antibody, human IgG1, kappa, V domains shown) VH: EVQLVQSGAEVKKPGASVKVSCKASGYTFTDYALHWVRQAPGQGLEWMGLINTYSSNTNYNQKFKDRVTMTRDTSISTAYMELSRLRSEDTAVYYCARGITAVVGTRYYAMDYWGQGTLVTVSS VL: EIVLTQSPGTLSLSPGERATLSCRASQSISNNLHWYQQKPGQAPRLLIKYTSQSISGIPDRFSGSGSGTDFTLTISRLEPEDFAVYYCQQSYSWPLTFGGGTKVEIKR
6 | 0.191 | Enoblituzumab (antibody, human IgG1, kappa, V domains shown) VH: EVQLVESGGGLVQPGGSLRLSCAASGFTFSSFGMHWVRQAPGKGLEWVAYISSDSSAIYYADTVKGRFTISRDNAKNSLYLQMNSLRDEDTAVYYCGRGRENIYYGSRLDYWGQGTTVTVSS VL: DIQLTQSPSFLSASVGDRVTITCKASQNVDTNVAWYQQKPGKAPKALIYSASYRYSGVPSRFSGSGSGTDFTLTISSLQPEDFATYYCQQYNNYPFTFGQGTKLEIKR
7 | 0.0565 | MGC-018 (antibody, human IgG1, kappa, V domains shown) VH: EVQLVESGGGLVKPGGSLRLSCAASGFTFSSYGMSWVRQAPGKGLEWVATINSGGSNTYYPDSLKGRFTISRDNAKNSLYLQMNSLRAEDTAVYYCARHDGGAMDYWGQGTTVTVSS VL: DIQMTQSPSSLSASVGDRVTITCRASESIYSYLAWYQQKPGKAPKLLVYNTKTLPEGVPSRFSGSGSGTDFTLTISSLQPEDFATYYCQHHYGTPPWTFGQGTRLEIKR
